Source: patent publication US20240376205A1 (Hoffmann-La Roche, published 2024)
Blank lines part the entries; values can stand above or below the binder they belong to.

Experiments:
[1] = molecular target: T1, OneArmed-huPD-L1_ECD_Fc_LALAPG (P1AF6937) (human, UniProt Q9NZQ7 18-238); experiment: SPR, Dutaflip Fab fragment without IFN-α2 fusion, analyte P1AF6937
T1 construct: range 18-238; also called huPD-L1-Fc; huPD-L1(ECD)-huFc

[2] = molecular target: T2, OneArmed-cyPD-L1_ECD_Fc_LALAPG_avi_his (P1AF6938) (cynomolgus); experiment: SPR, Fab fragment, as in Example 2 a)
T2 construct: also called cynomolgus PD-L1-Fc; cynoPD-L1 (ECD)-huFc

[3] = molecular target: T1, OneArmed-huPD-L1_ECD_Fc_LALAPG …; experiment: SPR, Fab fragment, as in Example 2 a)

- Kd [1]: 6 nM
B1: Dutaflip Fab fragment of P1AH1108 (Fab, V domains shown)
VH: MSQLVESGGGLVQPGGSLRLSCAANNDIEFNAMSWVRQAPGKGLEWVGSISPKGGSKSIHRKFQGRFTISRDNSKNTLYLQMNSLRAEDTAVYYCARDLGFMDIWGQGTLVTVSS
VL: KTQMTQSPSSLSASVGDRVTITCDGTYGISNELAWYQQKPGKAPKLLIYDGEYHDFDVPSRFSGSGSGSDFTLTISSLQPEDFATYYCQQYGNWPHTFGQGTKVEIK
notes: Dutaflip Fab fragment without IFN-α2 fusion, expressed in E. coli

- Kd [2]: 0.9 nM
- koff [2]: 0.00015 s⁻¹
- kon [2]: 160000 M⁻¹ s⁻¹
- Kd [3]: 0.6 nM
- koff [3]: 0.00012 s⁻¹
- kon [3]: 200000 M⁻¹ s⁻¹
B2: anti-huPD-L1 M14 Fab (P1AI3438) (Fab, V domains shown)
VH: MTQLVESGGGLVQPGGSLRLSCAADHTTEYNAMSWVRQAPGKGLEWVSAISGSGGSTYYADSVKGRFTISRDNSKNTLYLQMNSLRAEDTAVYYCARDLGFMDVWGQGTLVTVSS
VL: DIQMTQSPSSLSASVGDRVTITCRASQSISSYLNWYQQKPGKAPKLLIYDASYHEFGVPSRFSGSGSGTDFTLTISSLQPEDFATYYCQQSYSTPWTFGQGTKVEIK
notes: Tested as Fab fragment

- Kd [1]: 37 nM
B3: Dutaflip Fab fragment of P1AH1111 (DutaFab E06P07) (Fab, V domains shown)
VH: ARQLVESGGGLVQPGGSLRLSCAASGFHFEEQAMSWVRQAPGKGLEWVGSISPKGGSKSLNRNFNGRFTISRDNSKNTLYLQMNSLRAEDTAVYYCAKDIGFMDGWGQGTLVTVSS
VL: YQMTQSPSSLSASVGDRVTITCHGHVFISNYLAWYQQKPGKAPKLLIYDGEWRDFGVPSRFSGSGSDDSFTLTISSLQPEDFATYYCQQYSNWPHTFGQGTKVEIK
notes: Fab fragment without IFN-α2 fusion, expressed in E. coli
